Laboratory results from publication PMC11055865, “Mechanism of DNA unwinding by MCM8-9 in complex with HROB” (Nature Communications, 2023).

B1: MCM8-9 complex (FLAG-tagged MCM8 and MBP-tagged MCM9), wild type (complex)
chain 1: MNGEYRGRGFGRGRFQSWKRGRGGGNFSGKWREREHRPDLSKTTGKRTSEQTPQFLLSTKTPQSMQSTLDRFIPYKGWKLYFSEVYSDSSPLIEKIQAFEKFFTRHIDLYDKDEIERKGSILVDFKELTEGGEVTNLIPDIATELRDAPEKTLACMGLAIHQVLTKDLERHAAELQAQEGLSNDGETMVNVPHIHARVYNYEPLTQLKNVRANYYGKYIALRGTVVRVSNIKPLCTKMAFLCAACGEIQSFPLPDGKYSLPTKCPVPVCRGRSFTALRSSPLTVTMDWQSIKIQELMSDDQREAGRIPRTIECELVHDLVDSCVPGDTVTITGIVKVSNAEEGSRNKNDKCMFLLYIEANSISNSKGQKTKSSEDGCKHGMLMEFSLKDLYAIQEIQAEENLFKLIVNSLCPVIFGHELVKAGLALALFGGSQKYADDKNRIPIRGDPHILVVGDPGLGKSQMLQAACNVAPRGVYVCGNTTTTSGLTVTLSKDSSSGDFALEAGALVLGDQGICGIDEFDKMGNQHQALLEAMEQQSISLAKAGVVCSLPARTSIIAAANPVGGHYNKAKTVSENLKMGSALLSRFDLVFILLDTPNEHHDHLLSEHVIAIRAGKQRTISSATVARMNSQDSNTSVLEVVSEKPLSERLKVVPGETIDPIPHQLLRKYIGYARQYVYPRLSTEAARVLQDFYLELRKQSQRLNSSPITTRQLESLIRLTEARARLELREEATKEDAEDIVEIMKYSMLGTYSDEFGNLDFERSQHGSGMSNRSTAKRFISALNNVAERTYNNIFQFHQLRQIAKELNIQVADFENFIGSLNDQGYLLKKGPKVYQLQTM
chain 2: not shown
notes: MCM8, human; vector pFB-FLAG-MCM8; MCM9, human; vector pFB-MBP-MCM9; Major species is a heterodimer; tetramers and hexamers are also present; also called MCM8-9 heterodimer; dimer-rich MCM8-9; source: MBP tag not cleaved; for the amylose pull-down captured from Sf9 lysate on amylose resin and washed; not shown: FLAG, N-terminal, kept; MBP, N-terminal, kept

What was measured:
[1] = molecular target: the molecule itself; experiment: mass photometry; protein alone in solution, no DNA; 50-200 nM final protein in 50 mM Tris-HCl pH 7.5, 100 mM NaCl; oligomeric state of MCM8-9 unchanged with ATP-γ-S
[2] = molecular target: B1; experiment: pull-down; MBP-MCM9/FLAG-MCM8 (or pMCM8-9, with or without λ-phosphatase treatment on the resin) immobilized on amylose resin from Sf9 lysate and washed; 1 µg wild type or mutant HROB in 50 mM Tris-HCl pH 7.5, 3 mM EDTA, 100 mM NaCl, 1 h at 4 °C; maltose elution, western blotting; details: both partners purified

Binder | binding result [1] | binding result [2]
B1 | binds | 
HROB-L405D (natural protein, human, UniProt Q8N3J3-4 1-646, looked up, HROB, human; numbers count on: isoform 1 (Q8N3J3-1); not shown: FLAG, C-terminal, kept) MACSLQKLFAVEEEFEDEDFLSAVEDAENRFTGSLPVNAGRLRPVSSRPQETVQAQSSRLLLLHPTAPSEALGLPDLDLCLPASSTPSADSRPSCIGAAPLRPVSTSSSWIGNQRRVTVTEVLREPARPQSSALHPLLTFESQQQQVGGFEGPEQDEFDKVLASMELEEPGMELECGVSSEAIPILPAQQREGSVLAKKARVVDLSGSCQKGPVPAIHKAGIMSAQDESLDPVIQCRTPRPPLRPGAVGHLPVPTALTVPTQQLHWEVCPQRSPVQALQPLQAARGTIQSSPQNRFPCQPFQSPSSWLSGKAHLPRPRTPNSSCSTPSRTSSGLFPRIPLQPQAPVSSIGSPVGTPKGPQGALQTPIVTNHLVQLVTAASRTPQQPTHPSTRAKTRRFPGPAGIDPHQQSGRSLEDIMVSAPQTPTHGALAKFQTEIVASSQASVEEDFGRGPWLTMKSTLGLDERDPSCFLCTYSIVMVLRKAALKQLPRNKVPNMAVMIKSLTRSTMDASVVFKDPTGEMQGTVHRLLLETCQNELKPGSVLLLKQIGVFSPSLRNHYLNVTPNNLVHIYSPDSGDGSFLKPSQPFPKDSGSFQHDVAAKPEEGFRTAQNLEAEASPEEELPEADDLDGLLSELPEDFFCGTSS |  | binds
